Key:
[1] = target: T1, MAS tripeptide (Met-Ala-Ser)
T1 chain: MAS

[2] = target: T2, IGG tripeptide
T2 chain: IGG

[3] = target: T3, MEG tripeptide
T3 chain: MEG

[4] = target: T4, GGG tripeptide
T4 chain: GGG

[5] = target: T5, MGG tripeptide
T5 chain: MGG

B1: recombinant human MetAP-2 expressed in Sf9 insect cells (protein)
chain: AGVEEVAASGSHLNGDLDPDDREEGAASTAEEAAKKKRRKKKKSKGPSAAGEQEPDKESGASVDEVARQLERSALEDKERDEDDEDGDGDGDGATGKKKKKKKKKRGPKVQTDPPSVPICDLYPNGVFPKGQECEYPPTQDGRTAAWRTTSEEKKALDQASEEIWNDFREAAEAHRQVRKYVMSWIKPGMTMIEICEKLEDCSRKLIKENGLNAGLAFPTGCSLNNCAAHYTPNAGDTTVLQYDDICKIDFGTHISGRIIDCAFTVTFNPKYDTLLKAVKDATNTGIKCAGIDVRLCDVGEAIQEVMESYEVEIDGKTYQVKPIRNLNGHSIGQYRIHAGKTVPIVKGGEATRMEEGEVYAIETFGSTGKGVVHDDMECSHYMKNFDVGHVPIRLPRTKHLLNVINENFGTLAFCRRWLDRLGESKYLMALKNLCDLGIVDPYPPLCDIKGSYTAQFEHTILLRPTCKEVVSRGDDY
Work on B1 yielded a Km [1] of 300 µM and a kcat [1] of 2.3 s⁻¹.

B2: recombinant human MetAP-3 purified from E. coli after thrombin cleavage of the NusA-6xHis tag (protein)
chain: SSPLNHIYLHKQSSSQQRRNFFFRRQRDISHSIVLPAAVSSAHPVPKHIKKPDYVTTGIVPDWGDSIEVKNEDQIQGLHQACQLARHVLLLAGKSLKVDMTTEEIDALVHREIISHNAYPSPLGYGGFPKSVCTSVNNVLCHGIPDSRPLQDGDIINIDVTVYYNGYHGDTSETFLVGNVDECGKKLVEVARRCRDEAIAACRAGAPFSVIGNTISHITHQNGFQVCPHFVGHGIGSYFHGHPEIWHHANDSDLPMEEGMAFTIEPIITEGSPEFKVLEDAWTVVSLDNQRSAQFEHTVLITSRGAQILTKLPHEA
For B2, the Cleaved [2] was “No”, the Vmax (Abs × 1000/min) (Abs × 1000/min) [2] was 3.1 and the Cleaved [3] was “No”. The Vmax (Abs × 1000/min) (Abs × 1000/min) [3] was 1.1, the Cleaved [4] was “No” and the Vmax (Abs × 1000/min) (Abs × 1000/min) [4] was 0.7. For the same protein, the Cleaved [5] was “Yes”, the Vmax (Abs × 1000/min) (Abs × 1000/min) [5] was 134 and the Cleaved [1] was “Yes”. For the same protein, the Km [1] was 600 µM, the Vmax (Abs × 1000/min) (Abs × 1000/min) [1] was 70 and the kcat [1] was 0.06 s⁻¹.
